The values that follow come from patent US20160297884A1 (Pfizer, published 2016).

Numbering of substitutions follows the chain as printed.

One test deals with T1, Human BCMA (human, UniProt Q02223 1-54, limits assumed).
T1 construct: Soluble analyte in SPR; construct not described; also called huBCMA; B-cell maturation antigen
T1 sequence (looked up): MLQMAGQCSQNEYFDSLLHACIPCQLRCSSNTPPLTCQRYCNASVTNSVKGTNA
As to the kind of experiment: SPR, IgG immobilised, 37 C. Summed up:
(§1)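 Rate constants come from a 1:1 Langmuir model including mass transport, fitted to double-referenced sensorgrams. Analyte was human or cynomolgus BCMA in five rising concentrations up to 50 nM over amine-coupled IgG; runs were at 25° C or 37° C.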
On the technique in general: SPR reads the build-up and loss of mass on a sensor chip optically.

The target of the next test is T2, cynomolgus monkey BCMA (cynomolgus monkey, UniProt A0A2K5UD97 1-53).
T2 construct: Soluble analyte in SPR; construct not described; also called cyBCMA; Cyno BCMA
As to the kind of experiment: SPR, IgG immobilised, 37 C. Summed up:
as §1

As usually defined, the Kd is the equilibrium constant for the complex coming apart. Broadly, the koff is the rate constant with which the complex falls apart. As a reminder, the kon is the second-order rate constant of association.

T2 sequence (A0A2K5UD97 entry or part of it): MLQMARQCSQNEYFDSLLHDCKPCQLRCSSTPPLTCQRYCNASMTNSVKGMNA

B1: L3.PY/L1.AH/H2.LT (antibody, V domains shown)
VH: EVQLLESGGGLVQPGGSLRLSCAASGFTFGSYAMTWVRQAPGKGLEWVSAISLTGGNTFYADSVKGRFTISRDNSKNTLYLQMNSLRAEDTAVYYCARVSPIASGMDYWGQGTLVTVSS
VL: EIVLTQSPGTLSLSPGERATLSCRASQSVSAHYLAWYQQKPGQAPRLLIYGASSRATGIPDRFSGSGSGTDFTLTISRLEPEDFAVYYCQHYPYPPSFTFGQGTKVEIK
notes: IgG
As to B1, in the test with Human BCMA, the Kd worked out at 0.39 nM, the “T ½” value is 9.38 min, the koff worked out at 0.00123 s⁻¹ and the kon worked out at 3.16e+06 M⁻¹ s⁻¹. Further, in the test with cynomolgus monkey BCMA, binding was put at a Kd of 1.35 nM, the “T ½” value stood at 3.91 min, the koff turned out to be 0.00296 s⁻¹ and the kon turned out to be 2.19e+06 M⁻¹ s⁻¹.

B2: L3.PY/L1.AH/H3.AE (antibody, V domains shown)
VH: B1 VH with L53G, T54S, S104A, G105E
VL: B1 VL
notes: IgG
Regarding B2, in the test with Human BCMA, binding was characterised by a dissociation constant (Kd) of 0.52 nM, the “T ½” value stood at 6.7 min, the koff is 0.00173 s⁻¹ and the kon was 3.32e+06 M⁻¹ s⁻¹. In the test with cynomolgus monkey BCMA, the Kd is 1.58 nM, the “T ½” value was found to be 3.25 min, the koff was found to be 0.00356 s⁻¹ and the kon was determined as 2.25e+06 M⁻¹ s⁻¹.

B3: L3.PY/L1.AH/P6E01 (antibody, V domains shown)
VH: B1 VH with L53G, T54S
VL: B1 VL
notes: IgG
As to B3, in the test with Human BCMA, binding was put at a Kd of 0.49 nM, the “T ½” value turned out to be 9.19 min, the koff turned out to be 0.00126 s⁻¹ and the kon is 2.55e+06 M⁻¹ s⁻¹. Moreover, in the test with cynomolgus monkey BCMA, the Kd was 2.65 nM, the “T ½” value was 2.02 min, the koff was 0.00572 s⁻¹ and the kon is 2.16e+06 M⁻¹ s⁻¹.

B4: L3.PY/L1.PS/H2.QL (antibody, V domains shown)
VH: B1 VH with L53G, T54S, S63Q, V64L
VL: B1 VL with A31S, H32S, L34P, A35S
notes: IgG
As for B4, in the test with Human BCMA, the Kd turned out to be 20.6 nM, the “T ½” value was determined as 0.04 min, the koff was determined as 0.314 s⁻¹ and the kon came to 1.52e+07 M⁻¹ s⁻¹. Also, in the test with cynomolgus monkey BCMA, the Kd amounted to 0.97 nM, the “T ½” value was determined as 18.2 min, the koff turned out to be 0.000636 s⁻¹ and the on-rate (kon) worked out at 657000 M⁻¹ s⁻¹.

B5: L3.PY/L1.FF/P6E01 (antibody, V domains shown)
VH: B1 VH with L53G, T54S
VL: B1 VL with A31S, H32F, Y33F
notes: IgG
Turning to B5, in the test with Human BCMA, binding was put at a Kd of 0.59 nM, the “T ½” value is 8.18 min, the off-rate constant (koff) was found to be 0.00141 s⁻¹ and the kon turned out to be 2.39e+06 M⁻¹ s⁻¹. For the same molecule, in the test with cynomolgus monkey BCMA, the Kd was 2.41 nM, the “T ½” value was 1.96 min, the koff was determined as 0.00591 s⁻¹ and the kon was determined as 2.45e+06 M⁻¹ s⁻¹.

B6: L3.PY/L1.PS/H2.HA (antibody, V domains shown)
VH: B1 VH with L53H, T54A
VL: B1 VL with A31S, H32S, L34P, A35S
notes: IgG
As for B6, in the test with Human BCMA, the Kd came out at 3.21 nM, the “T ½” value worked out at 1.09 min, the koff was found to be 0.0106 s⁻¹ and the kon is 3.3e+06 M⁻¹ s⁻¹. Further, in the test with cynomolgus monkey BCMA, the affinity, expressed as Kd, was 1.86 nM; the “T ½” value was 4.3 min; the koff came out at 0.00269 s⁻¹; the kon amounted to 1.45e+06 M⁻¹ s⁻¹.

B7: L3.PY/L1.AH/H3.YA (antibody, V domains shown)
VH: B1 VH with L53G, T54S, A103Y, S104A
VL: B1 VL
notes: IgG
B7: in the test with Human BCMA, the Kd is 0.5 nM, the “T ½” value is 7.73 min, the koff was 0.0015 s⁻¹ and the kon is 3e+06 M⁻¹ s⁻¹. In the test with cynomolgus monkey BCMA, the Kd came to 2.22 nM, the “T ½” value is 2.2 min, the koff was 0.00526 s⁻¹ and the kon was found to be 2.37e+06 M⁻¹ s⁻¹.

B8: L3.PY/L1.PS/H2.DY (antibody, V domains shown)
VH: B1 VH with S52D, L53Y, T54S
VL: B1 VL with A31S, H32S, L34P, A35S
notes: IgG
Turning to B8, in the test with Human BCMA, the Kd was determined as 1.12 nM, the “T ½” value worked out at 3.2 min, the koff was found to be 0.00361 s⁻¹ and the kon amounted to 3.22e+06 M⁻¹ s⁻¹. For the same molecule, in the test with cynomolgus monkey BCMA, the Kd worked out at 1.99 nM, the “T ½” value turned out to be 3.06 min, the koff was found to be 0.00378 s⁻¹ and the kon was found to be 1.9e+06 M⁻¹ s⁻¹.

B9: L3.PY/L1.AH/H2.QL (antibody, V domains shown)
VH: B1 VH with L53G, T54S, S63Q, V64L
VL: B1 VL
notes: IgG
As for B9, in the test with Human BCMA, the Kd came out at 0.53 nM, the “T ½” value came to 7.22 min, the koff amounted to 0.0016 s⁻¹ and the kon was determined as 3.04e+06 M⁻¹ s⁻¹. In the test with cynomolgus monkey BCMA, binding was put at a Kd of 3.65 nM, the “T ½” value worked out at 1.21 min, the koff came out at 0.00955 s⁻¹ and the kon was found to be 2.62e+06 M⁻¹ s⁻¹.

B10: L3.PY/L1.PH/P6E01 (antibody, V domains shown)
VH: B1 VH with L53G, T54S
VL: B1 VL with A31P
notes: IgG
Regarding B10, in the test with Human BCMA, binding was put at a Kd of 0.32 nM, the “T ½” value was 12.7 min, the koff is 0.000913 s⁻¹ and the kon was 2.81e+06 M⁻¹ s⁻¹. For the same molecule, in the test with cynomolgus monkey BCMA, the Kd turned out to be 3.63 nM, the “T ½” value turned out to be 1.46 min, the koff is 0.00789 s⁻¹ and the association rate constant (kon) turned out to be 2.17e+06 M⁻¹ s⁻¹.

B11: L3.PY/L1.AH/H2.YQ (antibody, V domains shown)
VH: B1 VH with L53Y, T54Q
VL: B1 VL
notes: IgG
Take B11: in the test with Human BCMA, the affinity, expressed as Kd, was 0.8 nM; the “T ½” value was determined as 6 min; the koff was found to be 0.00193 s⁻¹; the kon came to 2.42e+06 M⁻¹ s⁻¹. Moreover, in the test with cynomolgus monkey BCMA, binding was characterised by a dissociation constant (Kd) of 2.74 nM, the “T ½” value was found to be 2.68 min, the koff is 0.00431 s⁻¹ and the association rate constant (kon) worked out at 1.58e+06 M⁻¹ s⁻¹.

B12: L3.PY/L1.AH/H2.QR (antibody, V domains shown)
VH: B1 VH with L53G, T54S, S63Q, V64R
VL: B1 VL
notes: IgG
Consider B12, for which, in the test with Human BCMA, the Kd was 0.58 nM, the “T ½” value worked out at 6.39 min, the koff amounted to 0.00181 s⁻¹ and the kon turned out to be 3.13e+06 M⁻¹ s⁻¹. In addition, in the test with cynomolgus monkey BCMA, the Kd is 2.23 nM, the “T ½” value is 2.35 min, the koff was determined as 0.00491 s⁻¹ and the kon stood at 2.2e+06 M⁻¹ s⁻¹.

B13: L3.PY/L1.AH/H3.AQ (antibody, V domains shown)
VH: B1 VH with L53G, T54S, S104A, G105Q
VL: B1 VL
notes: IgG
B13: in the test with Human BCMA, the Kd was 0.65 nM, the “T ½” value is 5.85 min, the koff worked out at 0.00197 s⁻¹ and the kon turned out to be 3.03e+06 M⁻¹ s⁻¹. Further, in the test with cynomolgus monkey BCMA, binding was characterised by a dissociation constant (Kd) of 1.78 nM, the “T ½” value is 2.9 min, the koff was 0.00399 s⁻¹ and the kon is 2.24e+06 M⁻¹ s⁻¹.

B14: L3.PY/L1.PS/H2.LT (antibody, V domains shown)
VH: B1 VH
VL: B1 VL with A31S, H32S, L34P, A35S
notes: IgG
Take B14: in the test with Human BCMA, the Kd turned out to be 1.37 nM, the “T ½” value was 2.49 min, the koff was 0.00465 s⁻¹ and the kon was 3.4e+06 M⁻¹ s⁻¹. For the same molecule, in the test with cynomolgus monkey BCMA, binding was characterised by a dissociation constant (Kd) of 1.89 nM, the “T ½” value is 2.81 min, the koff amounted to 0.00411 s⁻¹ and the kon came to 2.17e+06 M⁻¹ s⁻¹.
